# Results reported in paper PMC6776259 (PLoS Pathogens, 2019).
# B1: WSN FluPol heterotrimer in cells infected with recombinant WSN viruses expressing PB1-Gluc1 and PB1-Gluc2 (complex)
# chain 1: MDVNPTLLFLKVPAQNAISTTFPYTGDPPYSHGTGTGYTMDTVNRTHQYSERGRWTTNTETGAPQLNPIDGPLPEDNEPSGYAQTDCVLEAMAFLEESHPGIFETSCLETMEVVQQTRVDKLTQGRQTYDWTLNRNQPAATALANTIEVFRSNGLTANESGRLIDFLKDVMESMNKEEMEITTHFQRKRRVRDNMTKKMVTQRTIGKRKQRLNKRSYLIRALTLNTMTKDAERGKLKRRAIATPGMQIRGFVYFVETLARSICEKLEQSGLPVGGNEKKAKLANVVRKMMTNSQDTEISFTITGDNTKWNENQNPRMFLAMITYITRNQPEWFRNVLSIAPIMFSNKMARLGKGYMFESKSMKIRTQIPAEMLASIDLKYFNDSTRKKIEKIRPLLIDGTASLSPGMMMGMFNMLSTVLGVSILNLGQKRHTKTTYWWDGLQSSDDFALIVNAPNHEGIQAGVNRFYRTCKLLGINMSKKKSYINRTGTFEFTSFFYRYGFVANFSMELPSFGVSGINESADMSIGVTVIKNNMINNDLGPATAQMALQLFIKDYRYTYRCHRGDTQIQTRRSFEIKKLWEQTHSKAGLLVSDGGPNLYNIRNLHIPEVCLKWELMDEDYQGRLCNPLNPFVNHKDIESVNNAVIMPAHGPAKNMEYDAVATTHSWIPKRNRSILNTSQRGILEDEQMYQKCCNLFEKFFPSSSYRRPVGISSMVEAMVSRARIDARIDFESGRIKKEEFTEIMKICSTIEELRRQK
# chain 2: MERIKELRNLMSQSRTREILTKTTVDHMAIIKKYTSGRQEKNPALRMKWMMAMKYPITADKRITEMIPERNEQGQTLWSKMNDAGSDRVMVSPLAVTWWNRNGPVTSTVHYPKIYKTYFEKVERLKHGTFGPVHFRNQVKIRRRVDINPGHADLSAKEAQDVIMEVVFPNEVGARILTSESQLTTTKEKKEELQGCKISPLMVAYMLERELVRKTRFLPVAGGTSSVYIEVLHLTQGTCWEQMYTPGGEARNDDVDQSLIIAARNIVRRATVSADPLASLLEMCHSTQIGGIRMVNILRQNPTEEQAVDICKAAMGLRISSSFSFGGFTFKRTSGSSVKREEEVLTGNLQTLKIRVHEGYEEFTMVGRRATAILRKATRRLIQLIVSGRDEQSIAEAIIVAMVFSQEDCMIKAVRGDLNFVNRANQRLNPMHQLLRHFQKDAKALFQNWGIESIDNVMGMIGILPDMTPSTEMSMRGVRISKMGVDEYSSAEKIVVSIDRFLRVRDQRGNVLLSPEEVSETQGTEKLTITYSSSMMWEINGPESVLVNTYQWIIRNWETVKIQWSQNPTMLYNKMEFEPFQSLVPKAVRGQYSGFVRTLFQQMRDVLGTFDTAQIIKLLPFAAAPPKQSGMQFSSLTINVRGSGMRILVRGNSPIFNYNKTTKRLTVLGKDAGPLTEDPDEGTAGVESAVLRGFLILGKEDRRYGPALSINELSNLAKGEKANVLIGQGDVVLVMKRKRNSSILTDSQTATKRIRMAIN
# chain 3: […]
# notes: copies: + +
# Molecular target: the molecule itself
# Assay: split reporter (BiFC, NanoBiT)
protein,measurement,value
B1,"luciferase activity, fold over background",> 1000 fold over background
